The values that follow come from PMC2190859.

In this assay the target is collagen. Nature of the assay: cell adhesion assay.

“very late antigen 4 (VLA-4, alpha4 beta1 integrin) (from UniProt P13612;P05556) (receptor)”: the percent of cells binding is under 5%.
